Experimental data published in article PMC5548840, “The FAD synthetase from the human pathogen Streptococcus pneumoniae: a bifunctional enzyme exhibiting activity-dependent redox requirements” (Scientific Reports, 2017).

Legend:
SpnFADS [1] = target: T1, SpnFADS (Streptococcus pneumoniae, UniProt A0A0H2UPY5); experiment: HPLC of flavin products, steady-state FMNAT activity; assay type: biochemical; conditions: 20 mM PIPES pH 7.0, 25 °C
T1 construct: gene SP_1110; full length (modules 1-186 FMNAT, 187-305 RFK); N-terminal His6-PreScission tag removed; codon-optimised synthetic gene in modified pET-15b, E. coli BL21 Star (DE3); 34,521 Da; mainly monomer
T1 sequence (A0A0H2UPY5 entry or part of it): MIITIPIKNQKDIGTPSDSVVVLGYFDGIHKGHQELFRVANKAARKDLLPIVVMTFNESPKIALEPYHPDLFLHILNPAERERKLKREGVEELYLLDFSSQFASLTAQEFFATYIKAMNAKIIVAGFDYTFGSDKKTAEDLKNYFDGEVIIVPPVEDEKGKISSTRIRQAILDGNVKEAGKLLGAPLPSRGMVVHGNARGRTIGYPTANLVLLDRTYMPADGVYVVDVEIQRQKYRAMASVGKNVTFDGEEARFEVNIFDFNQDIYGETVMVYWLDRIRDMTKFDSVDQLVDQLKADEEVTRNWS
From the text: HPLC of flavin products, steady-state FMNAT activity on SpnFADS

SpnFADS [2] = target: T1, SpnFADS; experiment: isothermal titration calorimetry; assay type: binding; conditions: 20 mM PIPES pH 7.0, 20 °C, free enzyme
From the text: isothermal titration calorimetry on SpnFADS

[3] = target: FAD synthetase from Streptococcus pneumoniae (SpnFADS) (Streptococcus pneumoniae); experiment: cross-linking; pure SpnFADS in 50 mM KHPO4, pH 8.0, with BS3 crosslinker for 2 h at 4 °C, then 15% SDS-PAGE
[4] = target: FAD synthetase from Streptococcus pneumoniae (SpnFADS) (Streptococcus pneumoniae); experiment: atomic force microscopy; 0.5 uM SpnFADS on mica, with 250 uM ATP; 20 mM PIPES, pH 6.0, 2 mM DTT, 0.8 mM MgCl2, room temperature
[5] = target: FAD synthetase from Streptococcus pneumoniae (SpnFADS) (Streptococcus pneumoniae); experiment: atomic force microscopy; 0.5 uM SpnFADS on mica, with 250 uM ATP and 50 uM FMN; 20 mM PIPES, pH 6.0, 2 mM DTT, 0.8 mM MgCl2, room temperature
[6] = target: FAD synthetase from Streptococcus pneumoniae (SpnFADS) (Streptococcus pneumoniae); experiment: atomic force microscopy; 0.5 uM SpnFADS on mica, with 250 uM ADP and 50 uM FMN; 20 mM PIPES, pH 6.0, 2 mM DTT, 0.8 mM MgCl2, room temperature
[7] = target: FAD synthetase from Streptococcus pneumoniae (SpnFADS) (Streptococcus pneumoniae); experiment: atomic force microscopy; 0.5 uM SpnFADS on mica, with 250 uM ADP; 20 mM PIPES, pH 6.0, 2 mM DTT, 0.8 mM MgCl2, room temperature
[8] = target: FAD synthetase from Streptococcus pneumoniae (SpnFADS) (Streptococcus pneumoniae); experiment: atomic force microscopy; 0.5 uM SpnFADS on mica, with 250 uM ATP and 50 uM RF; 20 mM PIPES, pH 6.0, 2 mM DTT, 0.8 mM MgCl2, room temperature
[9] = target: FAD synthetase from Streptococcus pneumoniae (SpnFADS) (Streptococcus pneumoniae); experiment: atomic force microscopy; 0.5 uM SpnFADS on mica, no ligand; 20 mM PIPES, pH 6.0, 2 mM DTT, 0.8 mM MgCl2, room temperature
[10] = target: FAD synthetase from Streptococcus pneumoniae (SpnFADS) (Streptococcus pneumoniae); experiment: atomic force microscopy; 0.5 uM SpnFADS on mica, with 50 uM FAD and 250 uM PPi; 20 mM PIPES, pH 6.0, 2 mM DTT, 0.8 mM MgCl2, room temperature
SpnFADS [11] = target: T1, SpnFADS; experiment: HPLC of flavin products, steady-state RFK activity; assay type: biochemical; conditions: saturating ATP (412 μM), 20 mM PIPES pH 7.0, 25 °C, 0.8 mM MgCl2, no dithionite
From the text: HPLC of flavin products, steady-state RFK activity on SpnFADS

[12] = SEC; 20 uM pure SpnFADS on a calibrated Superdex 200 10/300 GL column, 50 mM Tris/HCl, pH 8.0, 150 mM NaCl; freshly purified fraction considered as monomeric
[13] = 0.8 mM MgCl2, 4 mM sodium dithionite, 10 mM glucose, 0.5 U/mL glucose oxidase, reduced flavin, single site (FMNAT)

Nc1ncnc2c1ncn2[C@@H]1O[C@H](COP(=O)(O)OP(=O)(O)OP(=O)(O)O)[C@@H](O)[C@H]1O [ATP]
K m ^ATP (μM) (SpnFADS [1]; FMN 27.7 µM for kcat, 0.8 mM MgCl2, 3 mM sodium dithionite): 31.6 ± 10% µM
K d (μM) (SpnFADS [2]; 0.8 mM MgCl2, single site): 9.4 ± 20% μM

FAD synthetase from Streptococcus pneumoniae (SpnFADS) (enzyme)
stoichiometry N [3]: 2
% of features that are dimers [4]: 12%
% of features that are monomers [4]: 70%
% of features that are trimers [4]: 18%
% of molecules in dimers [4]: 16%
% of molecules in monomers [4]: 47%
% of molecules in trimers [4]: 37%
% of features that are dimers [5]: 7%
% of features that are monomers [5]: 73%
% of features that are trimers [5]: 20%
% of molecules in dimers [5]: 9%
% of molecules in monomers [5]: 50%
% of molecules in trimers [5]: 41%
% of features that are dimers [6]: 15%
% of features that are monomers [6]: 63%
% of features that are trimers [6]: 22%
% of molecules in dimers [6]: 19%
% of molecules in monomers [6]: 40%
% of molecules in trimers [6]: 41%
% of features that are dimers [7]: 7%
% of features that are monomers [7]: 60%
% of features that are tetramers [7]: 20%
% of features that are trimers [7]: 13%
% of molecules in dimers [7]: 7%
% of molecules in monomers [7]: 31%
% of molecules in tetramers [7]: 47%
% of molecules in trimers [7]: 20%
% of features that are dimers [8]: 20%
% of features that are monomers [8]: 73%
% of features that are trimers [8]: 7%
% of molecules in dimers [8]: 30%
% of molecules in monomers [8]: 54%
% of molecules in trimers [8]: 16%
% of features that are dimers [9]: 3%
% of features that are monomers [9]: 97%
% of molecules in dimers [9]: 6%
% of molecules in monomers [9]: 94%
% of features that are dimers [10]: 7%
% of features that are monomers [10]: 73%
% of features that are trimers [10]: 20%
% of molecules in dimers [10]: 9%
% of molecules in monomers [10]: 50%
% of molecules in trimers [10]: 41%

Cc1cc2c(cc1C)N(C[C@H](O)[C@H](O)[C@H](O)COP(=O)(O)O)c1[nH]c(=O)[nH]c(=O)c1N2 [reduced FMN]
K m ^RF (μM) (SpnFADS [1]; saturating ATP (252 μM), 0.8 mM MgCl2, 3 mM sodium dithionite (flavin reduced)): 9.8 ± 10% µM
K d (SpnFADS [2]; [13]): 0.8 ± 20% μM

Cc1cc2nc3c(=O)[nH]c(=O)nc-3n(C[C@H](O)[C@H](O)[C@H](O)CO)c2cc1C [RF]
K m ^RF (μM) (SpnFADS [11]): 0.9 ± 10% μM

FAD synthetase from Streptococcus pneumoniae (SpnFADS)
percent of the protein in the main peak at ~14.5 mL (monomers or dimers) [12]: ∼96% of the protein

Cc1cc2c(cc1C)N(C[C@H](O)[C@H](O)[C@H](O)COP(=O)(O)OP(=O)(O)OC[C@H]1O[C@@H](n3cnc4c(N)ncnc43)[C@H](O)[C@@H]1O)c1[nH]c(=O)[nH]c(=O)c1N2 [reduced FAD]
K d (μM) (SpnFADS [2]; [13]): 12.5 ± 20% μM

Nc1ncnc2c1ncn2[C@@H]1O[C@H](COP(=O)(O)OP(=O)(O)O)[C@@H](O)[C@H]1O [ADP]
K d (μM) (SpnFADS [2]; no MgCl2, single site): 4.1 ± 20% μM
